According to PMC6125598:

Target: STIM1-CFP (stromal interacting molecule 1) (UniProt Q13586)
Test: FRET or BRET; FRET between YFP-IP3R and STIM1-CFP in transfected cells, measured in TIRFM mode (less than 100 nm from the coverslip), after bradykinin stimulation (cells transfected with the human bradykinin type 2 receptor)

Chain of UniProt Q13586 (Q13586 23-685): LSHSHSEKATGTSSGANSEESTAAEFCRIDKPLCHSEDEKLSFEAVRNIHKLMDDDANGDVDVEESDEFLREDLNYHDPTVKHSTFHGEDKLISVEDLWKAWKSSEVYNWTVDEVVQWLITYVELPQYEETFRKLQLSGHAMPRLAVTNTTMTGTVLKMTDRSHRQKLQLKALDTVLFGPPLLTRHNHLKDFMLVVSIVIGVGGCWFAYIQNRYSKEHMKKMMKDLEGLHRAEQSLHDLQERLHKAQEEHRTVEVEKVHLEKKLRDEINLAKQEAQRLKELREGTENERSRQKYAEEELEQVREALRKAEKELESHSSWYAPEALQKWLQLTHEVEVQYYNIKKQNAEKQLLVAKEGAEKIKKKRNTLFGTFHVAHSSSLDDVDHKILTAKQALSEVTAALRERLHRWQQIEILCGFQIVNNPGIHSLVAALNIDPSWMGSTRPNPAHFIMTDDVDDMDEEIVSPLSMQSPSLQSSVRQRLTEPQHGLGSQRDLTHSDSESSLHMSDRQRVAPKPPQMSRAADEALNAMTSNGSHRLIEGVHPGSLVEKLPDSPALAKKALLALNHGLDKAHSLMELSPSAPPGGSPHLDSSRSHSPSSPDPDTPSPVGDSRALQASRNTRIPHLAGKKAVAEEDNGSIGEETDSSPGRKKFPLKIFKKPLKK

FRET efficiency: 24%
Substance: YFP-IP3R (inositol trisphosphate receptor type 1) (from UniProt Q14643-2 1-2743)
